What all share (assay): cell-based or functional assay
In one assay the target is T1, rat GC-A (rat), P18910.
T1 chain: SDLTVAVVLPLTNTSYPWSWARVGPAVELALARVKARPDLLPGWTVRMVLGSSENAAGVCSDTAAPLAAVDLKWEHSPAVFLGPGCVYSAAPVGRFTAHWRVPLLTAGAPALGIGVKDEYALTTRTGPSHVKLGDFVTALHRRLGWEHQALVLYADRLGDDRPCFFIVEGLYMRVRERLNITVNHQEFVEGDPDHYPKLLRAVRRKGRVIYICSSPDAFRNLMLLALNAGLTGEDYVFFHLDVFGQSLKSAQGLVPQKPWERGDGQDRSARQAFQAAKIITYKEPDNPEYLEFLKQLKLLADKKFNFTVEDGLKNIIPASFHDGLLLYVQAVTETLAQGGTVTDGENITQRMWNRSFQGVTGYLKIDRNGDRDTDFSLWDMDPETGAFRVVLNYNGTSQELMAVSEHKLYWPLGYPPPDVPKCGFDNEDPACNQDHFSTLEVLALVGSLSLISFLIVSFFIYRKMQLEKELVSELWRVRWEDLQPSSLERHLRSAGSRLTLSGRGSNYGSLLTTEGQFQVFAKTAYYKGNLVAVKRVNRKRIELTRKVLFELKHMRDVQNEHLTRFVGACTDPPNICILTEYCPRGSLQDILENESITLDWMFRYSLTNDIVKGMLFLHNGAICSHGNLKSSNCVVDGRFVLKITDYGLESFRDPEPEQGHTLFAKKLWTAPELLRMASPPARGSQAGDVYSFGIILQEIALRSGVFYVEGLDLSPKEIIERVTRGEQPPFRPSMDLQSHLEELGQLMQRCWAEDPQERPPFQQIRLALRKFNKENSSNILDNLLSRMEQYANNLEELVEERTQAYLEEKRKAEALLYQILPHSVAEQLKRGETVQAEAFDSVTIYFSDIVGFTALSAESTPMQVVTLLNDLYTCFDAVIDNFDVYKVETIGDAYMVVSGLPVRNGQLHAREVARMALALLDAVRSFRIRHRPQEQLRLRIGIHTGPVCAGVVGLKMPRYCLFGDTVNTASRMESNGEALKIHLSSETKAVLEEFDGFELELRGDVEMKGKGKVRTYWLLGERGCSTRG

The next assay addresses T2, NPR-C (rat), P41740.
T2 chain: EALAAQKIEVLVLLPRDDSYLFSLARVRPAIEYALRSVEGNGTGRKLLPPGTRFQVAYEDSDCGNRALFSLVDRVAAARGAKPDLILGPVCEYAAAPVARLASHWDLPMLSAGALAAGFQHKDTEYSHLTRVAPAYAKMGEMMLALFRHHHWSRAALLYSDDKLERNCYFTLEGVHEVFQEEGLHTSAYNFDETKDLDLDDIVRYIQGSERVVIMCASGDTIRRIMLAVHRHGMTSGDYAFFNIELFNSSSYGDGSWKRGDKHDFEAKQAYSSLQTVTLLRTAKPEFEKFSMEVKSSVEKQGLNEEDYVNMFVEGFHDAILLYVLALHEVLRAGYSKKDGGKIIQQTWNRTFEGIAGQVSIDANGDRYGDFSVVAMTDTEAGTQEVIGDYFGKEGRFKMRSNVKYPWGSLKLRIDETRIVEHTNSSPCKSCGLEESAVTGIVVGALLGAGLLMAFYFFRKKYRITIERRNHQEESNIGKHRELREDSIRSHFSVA

For assay [1], the target named is T3, NPR-A of HeLa cells, P16066.
T3 chain: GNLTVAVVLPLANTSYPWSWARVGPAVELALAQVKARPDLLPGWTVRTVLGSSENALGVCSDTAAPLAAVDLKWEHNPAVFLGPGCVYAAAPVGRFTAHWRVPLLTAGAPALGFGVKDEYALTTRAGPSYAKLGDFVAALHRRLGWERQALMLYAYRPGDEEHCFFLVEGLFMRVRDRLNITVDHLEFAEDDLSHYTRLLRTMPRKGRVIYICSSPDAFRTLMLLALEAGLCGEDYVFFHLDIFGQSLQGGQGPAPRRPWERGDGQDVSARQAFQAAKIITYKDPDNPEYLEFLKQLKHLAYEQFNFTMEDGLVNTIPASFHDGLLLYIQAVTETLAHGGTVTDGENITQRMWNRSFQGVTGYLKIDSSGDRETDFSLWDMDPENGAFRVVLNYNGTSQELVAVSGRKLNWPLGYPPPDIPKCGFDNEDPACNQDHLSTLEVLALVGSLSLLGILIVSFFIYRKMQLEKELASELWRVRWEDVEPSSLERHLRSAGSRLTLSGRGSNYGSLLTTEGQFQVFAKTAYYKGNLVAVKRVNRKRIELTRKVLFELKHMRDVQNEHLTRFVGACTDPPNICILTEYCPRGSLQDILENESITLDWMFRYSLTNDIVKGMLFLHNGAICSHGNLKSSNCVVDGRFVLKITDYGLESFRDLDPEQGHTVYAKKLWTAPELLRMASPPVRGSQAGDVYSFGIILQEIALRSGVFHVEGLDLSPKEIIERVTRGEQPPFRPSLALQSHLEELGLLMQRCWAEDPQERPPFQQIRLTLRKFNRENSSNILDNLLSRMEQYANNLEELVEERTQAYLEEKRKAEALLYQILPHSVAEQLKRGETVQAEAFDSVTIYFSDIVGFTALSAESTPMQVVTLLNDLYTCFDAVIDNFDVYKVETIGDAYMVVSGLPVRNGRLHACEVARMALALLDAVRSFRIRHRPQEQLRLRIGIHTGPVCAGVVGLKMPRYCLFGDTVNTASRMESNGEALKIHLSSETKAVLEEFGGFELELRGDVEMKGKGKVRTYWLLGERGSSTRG

Assay [2] has as its target T4, Natriuretic Peptide Receptor-A (NPR-A) of MDCK cells (canine (endogenous in MDCK cells)), A0A8I3.
T4 chain: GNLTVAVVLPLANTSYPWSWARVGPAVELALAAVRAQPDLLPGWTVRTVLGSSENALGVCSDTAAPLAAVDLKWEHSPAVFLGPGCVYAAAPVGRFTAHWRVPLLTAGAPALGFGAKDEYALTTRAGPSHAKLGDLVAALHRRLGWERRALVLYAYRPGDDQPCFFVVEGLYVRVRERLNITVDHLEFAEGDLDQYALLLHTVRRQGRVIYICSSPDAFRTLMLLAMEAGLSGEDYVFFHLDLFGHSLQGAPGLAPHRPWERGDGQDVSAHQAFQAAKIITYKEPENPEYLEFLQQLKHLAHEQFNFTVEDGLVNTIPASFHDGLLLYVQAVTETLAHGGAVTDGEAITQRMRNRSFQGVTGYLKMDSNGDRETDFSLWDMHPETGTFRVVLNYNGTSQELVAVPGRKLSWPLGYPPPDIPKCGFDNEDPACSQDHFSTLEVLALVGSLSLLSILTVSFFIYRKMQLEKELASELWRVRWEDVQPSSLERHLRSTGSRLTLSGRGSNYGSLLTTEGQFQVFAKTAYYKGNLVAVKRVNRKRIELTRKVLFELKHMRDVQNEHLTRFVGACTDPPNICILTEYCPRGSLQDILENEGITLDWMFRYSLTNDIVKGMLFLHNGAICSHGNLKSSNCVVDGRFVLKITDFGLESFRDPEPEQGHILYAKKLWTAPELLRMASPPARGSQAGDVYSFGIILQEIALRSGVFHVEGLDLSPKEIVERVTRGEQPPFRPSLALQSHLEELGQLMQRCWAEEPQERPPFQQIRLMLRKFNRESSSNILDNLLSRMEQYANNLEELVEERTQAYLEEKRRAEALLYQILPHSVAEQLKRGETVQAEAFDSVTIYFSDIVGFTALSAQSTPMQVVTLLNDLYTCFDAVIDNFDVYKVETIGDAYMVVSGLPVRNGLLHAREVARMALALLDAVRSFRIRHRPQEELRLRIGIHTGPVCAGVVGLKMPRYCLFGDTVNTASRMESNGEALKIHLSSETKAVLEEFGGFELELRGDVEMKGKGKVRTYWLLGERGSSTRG

Consider SDSKIGNGCFGFPLDRIGSVSGLGCNRIMQNPPKKFSGE (modifications not checked) [TNPc], for which, in the assay with rat GC-A (rat), P18910, the mean relaxation of denuded aortic rings, % of KCl response (% of KCl response) came out at 55 and the relaxation of KCl pre-contracted endothelium-denuded rat aortic rings was 100%. The same molecule returned a relaxation of KCl pre-contracted endothelium-intact rat aortic rings with NPR-C (rat), P41740 of 100%. In assay [1], the EC50 of cGMP accumulation in HeLa cells came out at 124 mM. In addition, in assay [2], the -Log10 EC50 (pEC50) of cGMP accumulation in MDCK cells was found to be 6.93 and the EC50 of cGMP accumulation in MDCK cells stood at 0.000184 mM.

Values taken from patent US20120178668A1.
